Where a chain is given by its changes, count along the chain named.

These results are taken from patent US20250041437A1 (SUN PHARMA ADVANCED RESEARCH, published 2025).

B1: HM2 LM2 variant of humanized anti-MUC1 antibody SP66 (antibody, V domains shown)
VH: EIQLVQSGAEVKKPGSSVKVSCKVTGHSITRGSSWHWMRQAPGQGLEWIGYIHYGGGTSYNPSLKSRITITRDTSTNTAYMELSSLRSEDTAFYFCARYSYDITYRWFFDVWGQGTLVTVSS
VL: DIQMTQSPSTLSASVGDRVTITCRASQNIGTSIHWYQQKPGKAPKLLIKRASESISGVPSRFSGSGSGTEFTLTISSLQPDDFATYYCQQNNNWPLTFGQGTKVEVK
notes: Humanized IgG expressed in CHO cells; only variable domains tied to the variant
B2: HM4 LM3 variant of humanized anti-MUC1 antibody SP66 (antibody, V domains shown)
VH: B1 VH with I68A, I70L, A79F
VL: B1 VL with R50Y
notes: as for B1
B3: HM5 LM2 variant of humanized anti-MUC1 antibody SP66 (antibody, V domains shown)
VH: B1 VH with A79F
VL: B1 VL
notes: as for B1
B4: HM2 LM1 variant of humanized anti-MUC1 antibody SP66 (antibody, V domains shown)
VH: B1 VH
VL: B1 VL with Y36F
notes: as for B1
B5: humanized IgG1 anti-MUC1-SEA mAb (HM5 LM4) (antibody, V domains shown)
VH: B1 VH with A79F
VL: DIQMTQSPSTLSASVGDRVTITCRASQNIGTSIHWYQQKPGKAPKLLIKYASESISGVPSRFSGSGSGTEFTLTISSLQPDDFATYYCQQNNNWPLTFGQGTKVEIKR
notes: also called Humanized anti-MUC1 SEA IgG1; humanized IgG anti-MUC1-SEA mAb
B6: HM5 LM3 variant of humanized anti-MUC1 antibody SP66 (antibody, V domains shown)
VH: B1 VH with A79F
VL: B1 VL with R50Y
notes: as for B1
B7: HM3 LM2 variant of humanized anti-MUC1 antibody SP66 (antibody, V domains shown)
VH: B1 VH with I68A, I70L
VL: B1 VL
notes: as for B1
B8: HM4 LM2 variant of humanized anti-MUC1 antibody SP66 (antibody, V domains shown)
VH: B1 VH with I68A, I70L, A79F
VL: B1 VL
notes: as for B1

In one experiment the target is T1, human MUC1 on cells (DA3-TM transfectants and human cancer cell lines SKOV3, COLO357, HT29 and others) (human, UniProt P15941 24-1255).
T1 construct: also called MUC1-SEA; surface MUC1
T1 sequence (P15941 24-1255 limits assumed): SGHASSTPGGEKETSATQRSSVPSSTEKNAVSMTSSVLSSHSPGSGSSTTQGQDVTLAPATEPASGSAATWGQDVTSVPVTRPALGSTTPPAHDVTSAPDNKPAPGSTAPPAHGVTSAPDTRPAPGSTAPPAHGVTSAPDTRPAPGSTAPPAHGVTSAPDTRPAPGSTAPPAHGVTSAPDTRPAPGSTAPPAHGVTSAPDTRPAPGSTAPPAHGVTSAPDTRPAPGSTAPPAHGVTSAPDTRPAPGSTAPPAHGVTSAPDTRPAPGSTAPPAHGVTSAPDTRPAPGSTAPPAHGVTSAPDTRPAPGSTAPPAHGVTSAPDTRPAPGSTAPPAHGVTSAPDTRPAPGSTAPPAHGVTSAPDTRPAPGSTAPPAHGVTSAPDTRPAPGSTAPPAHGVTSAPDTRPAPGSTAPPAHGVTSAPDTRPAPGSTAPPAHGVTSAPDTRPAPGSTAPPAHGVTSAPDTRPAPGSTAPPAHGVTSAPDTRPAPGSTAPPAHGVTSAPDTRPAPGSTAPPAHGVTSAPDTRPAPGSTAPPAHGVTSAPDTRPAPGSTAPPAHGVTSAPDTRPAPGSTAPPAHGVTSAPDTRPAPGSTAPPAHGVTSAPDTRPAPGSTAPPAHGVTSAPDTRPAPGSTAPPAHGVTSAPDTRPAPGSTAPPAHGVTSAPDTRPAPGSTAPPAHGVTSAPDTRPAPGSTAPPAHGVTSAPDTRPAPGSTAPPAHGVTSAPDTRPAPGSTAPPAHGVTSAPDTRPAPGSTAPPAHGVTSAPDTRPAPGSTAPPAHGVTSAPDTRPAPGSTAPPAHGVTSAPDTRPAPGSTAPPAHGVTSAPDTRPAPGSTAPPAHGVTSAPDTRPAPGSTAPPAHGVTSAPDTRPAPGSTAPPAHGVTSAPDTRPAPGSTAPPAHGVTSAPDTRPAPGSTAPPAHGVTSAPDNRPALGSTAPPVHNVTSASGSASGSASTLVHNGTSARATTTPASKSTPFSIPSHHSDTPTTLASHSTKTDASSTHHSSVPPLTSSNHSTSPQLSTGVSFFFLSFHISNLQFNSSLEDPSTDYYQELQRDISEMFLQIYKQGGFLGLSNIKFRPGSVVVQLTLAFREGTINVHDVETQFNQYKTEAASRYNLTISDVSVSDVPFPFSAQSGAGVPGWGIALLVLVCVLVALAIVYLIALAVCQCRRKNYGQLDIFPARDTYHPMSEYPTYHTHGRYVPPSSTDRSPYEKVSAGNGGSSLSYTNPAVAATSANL
Nature of the experiment: flow cytometry on DA3-TM cells; table row 2 of 5, about 11 nM by the matching point in FIG. 3A.
B1: the “Geometric Mean : FL6-A” value is 15000.

As for B2, the “Geometric Mean : FL6-A” value came out at 22300.

Take B3: the “Geometric Mean : FL6-A” value turned out to be 23700.

For the molecule B4, the “Geometric Mean : FL6-A” value was determined as 10000.

The target in another experiment is T1, human MUC1 on cells (DA3-TM …). Description: flow cytometry on DA3-TM cells; table row 4 of 5, about 1.2 nM by the matching point in FIG. 3A. For orientation: Flow cytometry measures light scatter and fluorescence of single cells or particles in a stream.
Turning to B1, the “Geometric Mean : FL6-A” value was determined as 6400.

With B2, the “Geometric Mean : FL6-A” value stood at 9700.

On to B3, for which the “Geometric Mean : FL6-A” value was 14600.

As to B4, the “Geometric Mean : FL6-A” value is 1870.

The target is the same in another experiment. Description: flow cytometry, dose-dependent binding on MUC1 positive DA3-TM cells.
Molecule B5 displayed a Kd of 1 nM.

Molecule B1 showed a Kd of 3.2 nM.

The molecule B6 registered a Kd of 0.9 nM.

For the molecule B2, binding was characterised by a dissociation constant (Kd) of 1.5 nM.

In turn, B3 yielded a Kd of 1.4 nM.

With B7, the dissociation constant Kd turned out to be 3.7 nM.

For B4, the Kd was found to be 14.5 nM.

For B8, the Kd was 2.1 nM.

The target is the same in the next experiment. Nature of the experiment: flow cytometry on DA3-TM cells; table row 3 of 5, about 3.7 nM by the matching point in FIG. 3A.
For the molecule B1, the “Geometric Mean : FL6-A” value stood at 11800.

Take B2: the “Geometric Mean : FL6-A” value turned out to be 17600.

For the molecule B3, the “Geometric Mean : FL6-A” value stood at 21300.

For the molecule B4, the “Geometric Mean : FL6-A” value is 4900.

The target is the same in another experiment. Description: flow cytometry on DA3-TM cells; table row 5 of 5, about 0.4 nM by the matching point in FIG. 3A.
For B1, the “Geometric Mean : FL6-A” value was determined as 2860.

As for B2, the “Geometric Mean : FL6-A” value turned out to be 5320.

Take B3: the “Geometric Mean : FL6-A” value was 7990.

As to B4, the “Geometric Mean : FL6-A” value was found to be 727.

Another experiment has the same target. Description: flow cytometry on SKOV-3 cells, geometric mean against concentration.
For the molecule B5, the “EC50 (read off the curve)” value was around 3 nM.

The Kd is the concentration at which binding is half-saturated. Lower therefore signals higher affinity. Broadly, the EC50 (read off the curve) is the concentration at which the effect is half-maximal. A high value points to weaker potency.
